14 molecules from patent US20240156980A1 (Molecular Partners, published 2024) can be followed below.

Experiment [1] has as its target T1, human CD3 on T cells (human, UniProt P07766 23-207; P09693 23-182; P04234 22-171). In words: cell-based or functional assay.
For experiment [2], the target named is T2, human EGFR on tumor cells (human, UniProt P00533 25-1210).
T2 construct: whole, on cells; also called EGFR on A431 cells
Kind of experiment: flow cytometry on HCT 116 tumor cells, detection with anti-DARPin antibodies. How it is done:
(§1) The determination of CD3 binding was performed with human CD3 on Jurkat cells, and binding to hEGFR on cells with HCT116 tumor cells, using Flow Cytometer Attune Nxt. A titration of prodrug DARPin molecules was incubated with 200′000 cells per well (for both Jurkat and HCT116 cells) for 30 min at 4° C. After washing, CD3 binding of DARPin® molecule was detected by 1:1000-diluted anti-DARPin® Antibody-Mix (1 h incubation at 4° C.) with the corresponding secondary antibody anti-rabbit IgG Alexa Fluor 488 (30 min incubation at 4° C.), which was added after washing off excess anti-DARPin Antibodies. Cells were subsequently washed and stained for livedead (aqua, 1:1000, thermofisher) and resuspended in Cytofix fixation buffer (BD Biosciences). Median of mean fluorescence intensities of Alexa Fluor 488 binding on live cells were measured by Flow Cytometry and data was plotted using GraphPad Prism 8.

In experiment [3] the target is T1, human CD3 on T cells. In words: flow cytometry on Jurkat cells, detection with anti-DARPin antibodies and anti-rabbit IgG Alexa Fluor 488, MFI [column T-cell binding]. How it is done: as §1
In experiment [4] the target is T3, CD3-specific binding domain C7v14.
T3 construct: Used as analyte in SPR; also called hC22_88B02v14
T3 chain: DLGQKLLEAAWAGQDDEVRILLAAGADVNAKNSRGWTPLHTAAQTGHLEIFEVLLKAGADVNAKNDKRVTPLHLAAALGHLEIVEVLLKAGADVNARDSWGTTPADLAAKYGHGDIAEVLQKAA
Kind of experiment: SPR validation of down-tuned binders.

Experiment [5] has as its target T2, human EGFR on tumor cells. In words: cell-based or functional assay.

A value given as a limit tells only on which side of the number the result lay.

T1 sequence (P07766 23-207, chain 1 of 3): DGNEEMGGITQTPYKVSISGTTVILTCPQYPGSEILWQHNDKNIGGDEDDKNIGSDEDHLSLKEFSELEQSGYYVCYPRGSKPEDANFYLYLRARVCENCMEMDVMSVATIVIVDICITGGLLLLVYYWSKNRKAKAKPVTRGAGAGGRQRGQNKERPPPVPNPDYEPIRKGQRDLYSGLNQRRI
T1 sequence (P09693 23-182, chain 2 of 3): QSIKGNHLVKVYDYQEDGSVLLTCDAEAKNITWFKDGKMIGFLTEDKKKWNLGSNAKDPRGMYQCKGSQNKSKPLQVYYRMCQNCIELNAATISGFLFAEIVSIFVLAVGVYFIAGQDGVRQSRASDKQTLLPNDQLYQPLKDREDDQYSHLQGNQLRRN
T1 sequence (P04234 22-171, chain 3 of 3): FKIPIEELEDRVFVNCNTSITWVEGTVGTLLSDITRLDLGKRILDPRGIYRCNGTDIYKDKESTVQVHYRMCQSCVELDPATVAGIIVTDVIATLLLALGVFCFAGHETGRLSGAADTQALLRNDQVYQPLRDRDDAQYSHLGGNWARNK

B1: CD3-PDD NCL EGFR-C7v119-[NCL1]-06E05v05-6His (designed binder)
chain: MGSDLGYKLLRAAFHGQDDEVRILLAAGADVNAKDLIGQTPLHNAAWVGHLEIVEVLLKAGADVNAKDYYGNTPLHLAAHDGHLEIVEVLLKAGADVNAQDTWGETPADLATNAGHEDIAEVLQKAAGSPTPTPTTPTPTPTTPTPTPTGSDLGQKLLEAAWAGQDDEVRELLKAGADVNAKNSRGWTPLHTAAQTGHLEIFEVLLKAGADVNAKDDKGVTPLHLAAALGHLEIVEVLLKAGADVNAQDSWGTTPADLAAKYGHEDIAEVLQKAASGPTPTPTTPTPTPTTPTPTPTGSDLGKKLLQAARAGQLDEVRELLKAGADVNAKDAKGLTPLHLAAYHGHLEIVEVLLKAGADVNAKDVYGWTPLHIAAASGHLEIVEVLLKAGADVNAKDALGWTPLHLAASHGHLEIVEVLLKAGADVNAQDKSGKTPADLAARAGHQDIAEVLQKAAGSHHHHHH
For B1, the “tumor cell killing EC50 (LDH release), HCT 116 tumor cells and pan T-cells” value in the experiment with human CD3 on T cells [1] was determined as 0.0821 nM.

B2: CD3-PDD NCL EGFR-C7v122-[NCL1]-06E05v05-6His (designed binder)
chain: MGSDLGYKLLRAAFHGQDDEVRILLAAGADVNAKDLIGQTPLHNAAWVGHLEIVEVLLKAGADVNAKDYYGNTPLHLAAHDGHLEIVEVLLKAGADVNAQDTWGETPADLATNAGHEDIAEVLQKAAGSPTPTPTTPTPTPTTPTPTPTGSDLGQKLLEAAWAGQDDEVRELLKAGADVNAKNSRGWTPLHTAAQTGHLEIFEVLLKAGADVNAKNDKRVTPLHLAAALGHLEIVEVLLKAGADVNARDSWGTTPADLAAKYGHQDIAEVLQKAASGPTPTPTTPTPTPTTPTPTPTGSDLGKKLLQAARAGQLDEVRELLKAGADVNAKDAKGLTPLHLAAYHGHLEIVEVLLKAGADVNAKDVYGWTPLHIAAASGHLEIVEVLLKAGADVNAKDALGWTPLHLAASHGHLEIVEVLLKAGADVNAQDKSGKTPADLAARAGHQDIAEVLQKAAGSHHHHHH
Turning to B2, the “tumor cell killing EC50 (LDH release), HCT 116 tumor cells and pan T-cells” value with human CD3 on T cells [1] was above 0.1 nM.

B3: CD3-PDD NCL EGFR-C7v119-[NCL1]-06E05v07-6His (designed binder)
chain: MGSDLGYKLLRAAFHGQDDEVRILLAAGADVNAKDLIGQTPLHNAAWVGHLEIVEVLLKAGADVNAKDYYGNTPLHLAAHDGHLEIVEVLLKAGADVNAQDTWGETPADLATNAGHEDIAEVLQKAAGSPTPTPTTPTPTPTTPTPTPTGSDLGQKLLEAAWAGQDDEVRELLKAGADVNAKNSRGWTPLHTAAQTGHLEIFEVLLKAGADVNAKDDKGVTPLHLAAALGHLEIVEVLLKAGADVNAQDSWGTTPADLAAKYGHEDIAEVLQKAASGPTPTPTTPTPTPTTPTPTPTGSDLGKKLLQAARAGQLDEVRELLKAGADVNAKDAKGLTPLHLAAYHGHLEIVEVLLKAGADVNAKDVYGWTPLHIAAASGHLEIVEVLLKAGADVNAKDWLGWTPLHLAASAGHLEIVEVLLKAGADVNAQDKSGKTPADLAARAGHQDIAEVLQKAAGSHHHHHH
Consider B3, for which the EC50 in experiment [2] turned out to be 0.503 nM. For the same molecule, in the experiment with human CD3 on T cells [3], the binding result is listed as “no binding (tested: 100000 pM)”.

B4: Binder #5 (designed binder)
chain: MRGSHHHHHHGSDLGKKLLQAARAGQLDEVRELLKAGADVNAKDAKGLTPLHLAAYHGHLEIVEVLLKAGADVNAKDVYGWTPLHIAAASGHLEIVEVLLKAGADVNAKDWLGITPLHLAASHGHLEIVEVLLKAGADVNAQDKSGKTPADLAARAGHQDIAEVLQKAA
notes: N-terminal His-tag; also called 06E05v30
As to B4, the binding result in experiment [4] is “binds”.

B5: Binder #6 (designed binder)
chain: MRGSHHHHHHGSDLGKKLLQAARAGQLDEVRELLKAGADVNAKDAKGLTPLHLAAYHGHLEIVEVLLKAGADVNAKDVAGWTPLHIAAASGHLEIVEVLLKAGADVNAKDWLGITPLHLAASHGHLEIVEVLLKAGADVNAQDKSGKTPADLAARAGHQDIAEVLQKAA
notes: N-terminal His-tag; also called 06E05v31
Take B5: in experiment [4], the binding result is “binds”.

B6: Binder #12 (designed binder)
chain: MRGSHHHHHHGSDLGKKLLQAARAGQLDEVRELLKAGADVNAKDAKGLTPLHLAAYHGHLEIVEVLLKAGADVNAKDVYGWTPLHIAAASGHLEIVEVLLKAGADVNAKDWLGATPLHLAASAGHLEIVEVLLKAGADVNAQDKSGKTPADLAARAGHQDIAEVLQKAA
notes: N-terminal His-tag; also called 06E05v37
On to B6, for which the binding result in experiment [4] was “binds”.

B7: Binder #10 (designed binder)
chain: MRGSHHHHHHGSDLGKKLLQAARAGQLDEVRELLKAGADVNAKDAKGLTPLHLAAYHGHLEIVEVLLKAGADVNAKDVAGWTPLHIAAASGHLEIVEVLLKAGADVNAKDWLGATPLHLAASHGHLEIVEVLLKAGADVNAQDKSGKTPADLAARAGHQDIAEVLQKAA
notes: N-terminal His-tag; also called 06E05v35
On to B7, for which the binding result in experiment [4] is listed as “binds”.

B8: Binder #11 (designed binder)
chain: MRGSHHHHHHGSDLGKKLLQAARAGQLDEVRELLKAGADVNAKDAKGLTPLHLAAYHGHLEIVEVLLKAGADVNAKDVYGWTPLHIAAASGHLEIVEVLLKAGADVNAKDALGATPLHLAASHGHLEIVEVLLKAGADVNAQDKSGKTPADLAARAGHQDIAEVLQKAA
notes: N-terminal His-tag; also called 06E05v36
Consider B8, for which the binding result in experiment [4] is recorded as “binds”.

B9: Binder #8 (designed binder)
chain: MRGSHHHHHHGSDLGKKLLQAARAGQLDEVRELLKAGADVNAKDAKGLTPLHLAAYHGHLEIVEVLLKAGADVNAKDVYGWTPLHIAAASGHLEIVEVLLKAGADVNAKDWLGITPLHLAASAGHLEIVEVLLKAGADVNAQDKSGKTPADLAARAGHQDIAEVLQKAA
notes: N-terminal His-tag; also called 06E05v33
Consider B9, for which, in experiment [4], the binding result is “binds”.

B10: Binder #7 (designed binder)
chain: MRGSHHHHHHGSDLGKKLLQAARAGQLDEVRELLKAGADVNAKDAKGLTPLHLAAYHGHLEIVEVLLKAGADVNAKDVYGWTPLHIAAASGHLEIVEVLLKAGADVNAKDALGITPLHLAASHGHLEIVEVLLKAGADVNAQDKSGKTPADLAARAGHQDIAEVLQKAA
notes: N-terminal His-tag; also called 06E05v32
Regarding B10, the binding result in experiment [4] is given as “binds”.

B11: Binder #9 (designed binder)
chain: MRGSHHHHHHGSDLGKKLLQAARAGQLDEVRELLKAGADVNAKDAKGLTPLHLAAYHGHLEIVEVLLKAGADVNAKDVYGWTPLHIAAASGHLEIVEVLLKAGADVNAKDWLGATPLHLAASHGHLEIVEVLLKAGADVNAQDKSGKTPADLAARAGHQDIAEVLQKAA
notes: N-terminal His-tag; also called 06E05v34
As for B11, the binding result in experiment [4] is reported as “binds”.

B12: CD3-PDD CL EGFR-C7v119-[Linker#2]-06E05v07-6His (designed binder)
chain: MGSDLGYKLLRAAFHGQDDEVRILLAAGADVNAKDLIGQTPLHNAAWVGHLEIVEVLLKAGADVNAKDYYGNTPLHLAAHDGHLEIVEVLLKAGADVNAQDTWGETPADLATNAGHEDIAEVLQKAAGSPTPTPTTPTPTPTTPTPTPTGSDLGQKLLEAAWAGQDDEVRELLKAGADVNAKNSRGWTPLHTAAQTGHLEIFEVLLKAGADVNAKDDKGVTPLHLAAALGHLEIVEVLLKAGADVNAQDSWGTTPADLAAKYGHEDIAEVLQKAASGGGGGPQASTGRSGGGGGGSDLGKKLLQAARAGQLDEVRELLKAGADVNAKDAKGLTPLHLAAYHGHLEIVEVLLKAGADVNAKDVYGWTPLHIAAASGHLEIVEVLLKAGADVNAKDWLGWTPLHLAASAGHLEIVEVLLKAGADVNAQDKSGKTPADLAARAGHQDIAEVLQKAAGSHHHHHH
In experiment [2], B12 yielded an EC50 of 0.353 nM. For the same molecule, the binding result in the experiment with human CD3 on T cells [3] is on record as “no binding (tested: 100000 pM)”.

B13: CD3-PDD CL EGFR-C7v122-[Linker#2]-06E05v07-6His (designed binder)
chain: MGSDLGYKLLRAAFHGQDDEVRILLAAGADVNAKDLIGQTPLHNAAWVGHLEIVEVLLKAGADVNAKDYYGNTPLHLAAHDGHLEIVEVLLKAGADVNAQDTWGETPADLATNAGHEDIAEVLQKAAGSPTPTPTTPTPTPTTPTPTPTGSDLGQKLLEAAWAGQDDEVRELLKAGADVNAKNSRGWTPLHTAAQTGHLEIFEVLLKAGADVNAKNDKRVTPLHLAAALGHLEIVEVLLKAGADVNARDSWGTTPADLAAKYGHQDIAEVLQKAASGGGGGPQASTGRSGGGGGGSDLGKKLLQAARAGQLDEVRELLKAGADVNAKDAKGLTPLHLAAYHGHLEIVEVLLKAGADVNAKDVYGWTPLHIAAASGHLEIVEVLLKAGADVNAKDWLGWTPLHLAASAGHLEIVEVLLKAGADVNAQDKSGKTPADLAARAGHQDIAEVLQKAAGSHHHHHH
In experiment [2], B13 had a half-maximal effective concentration (EC50) of 0.41 nM. Also, in the experiment with human CD3 on T cells [3], the binding result is reported as “no binding”.

B14: Active TCE EGFR-C7v14-6His (designed binder)
chain: MGSDLGYKLLRAAFHGQDDEVRILLAAGADVNAKDLIGQTPLHNAAWVGHLEIVEVLLKAGADVNAKDYYGNTPLHLAAHDGHLEIVEVLLKAGADVNAQDTWGETPADLATNAGHEDIAEVLQKAAGSPTPTPTTPTPTPTTPTPTPTGSDLGQKLLEAAWAGQDDEVRILLAAGADVNAKNSRGWTPLHTAAQTGHLEIFEVLLKAGADVNAKNDKRVTPLHLAAALGHLEIVEVLLKAGADVNARDSWGTTPADLAAKYGHGDIAEVLQKAAGSHHHHHH
For B14, in experiment [5], the “T-cell activation EC50 (CD25 on CD8+ T cells), EGFR+ HCT 116 tumor cells and pan T-cells” value was 0.0016 nM; the “T-cell activation EC50 (CD25 on CD8+ T cells), EGFR+++ A431 tumor cells and pan T-cells” value came out at 0.0037 nM.
